IntAct's records for PubMed 30241482

B1: Protein ripply3 (Homo sapiens), P57055 (parent)
chain: MEPEAAAGARKARGRGCHCPGDAPWRPPPPRGPESPAPWRPWIQTPGDAELTRTGRPLEPRADQHTFGSKGAFGFQHPVRVYLPMSKRQEYLRSSGEQVLASFPVQATIDFYDDESTESASEAEEPEEGPPPLHLLPQEVGGRQENGPGGKGRDQGINQGQRSSGGGDHWGEGPLPQGVSSRGGKCSSSK
partner: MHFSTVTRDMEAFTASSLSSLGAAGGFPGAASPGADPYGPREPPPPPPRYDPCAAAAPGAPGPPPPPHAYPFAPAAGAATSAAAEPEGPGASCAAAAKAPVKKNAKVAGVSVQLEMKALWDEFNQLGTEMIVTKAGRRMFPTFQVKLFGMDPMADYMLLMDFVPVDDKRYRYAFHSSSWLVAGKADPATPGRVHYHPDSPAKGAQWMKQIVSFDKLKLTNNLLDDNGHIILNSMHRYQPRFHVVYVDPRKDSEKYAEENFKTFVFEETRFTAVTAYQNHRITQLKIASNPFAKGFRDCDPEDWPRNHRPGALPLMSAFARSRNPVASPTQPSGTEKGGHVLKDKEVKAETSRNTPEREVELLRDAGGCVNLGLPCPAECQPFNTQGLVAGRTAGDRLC

Variants of: B1
Details: with tbx1_human TBX1, O43435

Row | effect of a mutation on the interaction | Variant
1 | decreasing interaction strength | T52S
2 | with no effect | P30L
3 | with no effect | V179D
4 | with no effect | D113N
